{"source": "patent US8722052B2", "about": "“Vaccinia virus protein A46 peptide and use thereof” (priority 2008, dated 2014)", "key": {"TLR3": {"biological_target": "T1, TLR3 (Homo sapiens, UniProt O15455)", "T1 construct": "expressed in transfected cells", "assay": "poly(I:C)-induced NFκB / ISRE luciferase reporter assay in HEK293_TLR3 cells", "type": "cell-based", "conditions": "peptide 2, 5 or 10 μM, 25 μg/ml poly(I:C), 6 h", "method": "FIGS. 11A and B are bar charts showing the effect of A464 and scrambled A464 (ConA464) on poly(I:C)-induced TLR3 signalling in HEK293 cells. HEK293_TLR3 cells were seeded in 96 well plates (1.5×10^5 cells/ml) 24 hours before transfection with the plasmid DNA. Cells were transfected with 60 ng of either ISRE-Luciferase (A) or NFκB-Luciferase (B) and 20 ng of TK-Renilla reporter gene plasmids. The total volume of plasmid DNA transfected into the cells was made up to 230 ng by adding pcDNA.\nScrambled A464 (ConA464) (SEQ ID NO. 32) and A464 (SEQ ID NO. 20) peptides were added to the cells at a concentration of 2, 5 or 10 μM the next day and cells were stimulated with 25 μg/ml poly(I:C) 1 hour after treatment with the peptide. Cells were harvested and reporter gene assays performed 6 hr after stimulation with the agonist. No peptides were added to the control wells (black bars). Data is representative of at least three experiments each performed in triplicate. Data are expressed as mean fold induction±s.d. relative to control levels;\nFIGS. 20A and B are bar charts showing the effect of shortened A464 peptides with deletions of N- and C-terminal amino acids on TLR4- and TLR3-induced NFκB activation in HEK293 cells. HEK293_TLR4 (A) and HEK293_TLR3 (B) cells were seeded in 96 well plates (1.5×10^5 cells/ml) 24 hours before transfection with the plasmid DNA. Cells were transfected with 60 ng NFκB-Luciferase and 20 ng of TK-Renilla reporter genes, as in FIG. 11. A464N-2 (SEQ ID NO. 41) and A464C-3 (SEQ ID NO. 42) peptides were added to the cells at a concentration of 1, 5 or 25 μM the next day and cells were stimulated with either 10 ng/ml LPS (A) or 25 μg/ml Poly(I:C) (B) 1 hour after treatment with peptides. Cells were harvested and assayed for NFκB activation by reporter gene assay 6 hours after stimulation with the agonists. No peptides were added to the control wells (black bars). Data is representative of three experiments each performed in triplicate and is expressed as mean fold induction±s.d. relative to control levels;\nHEK293 cells were transfected using GeneJuice® a proprietary non-toxic transfection reagent. 200 μl/well cells at a density of 1×10^5 cells/ml were seeded the day before transfection. 0.8 μl of GeneJuice was mixed with 9.2 μl of serum-free DMEM (SFM) per transfection and incubated for 5 min at room temperature before adding the appropriate amount of the plasmid DNA. The GeneJuice/SFM/DNA mixture was then incubated at room temperature for 15 min before adding to the cells. 10 μl per well of the GeneJuice/SMF/DNA mixture was added to the cells in triplicate and the cells were allowed to recover for 18-20 hours before stimulation. […]"}, "TLR2": {"biological_target": "T2, TLR2 (Mus musculus, UniProt Q9QUN7)", "T2 construct": "endogenous in cells", "T2 sequence (Q9QUN7 25-784)": "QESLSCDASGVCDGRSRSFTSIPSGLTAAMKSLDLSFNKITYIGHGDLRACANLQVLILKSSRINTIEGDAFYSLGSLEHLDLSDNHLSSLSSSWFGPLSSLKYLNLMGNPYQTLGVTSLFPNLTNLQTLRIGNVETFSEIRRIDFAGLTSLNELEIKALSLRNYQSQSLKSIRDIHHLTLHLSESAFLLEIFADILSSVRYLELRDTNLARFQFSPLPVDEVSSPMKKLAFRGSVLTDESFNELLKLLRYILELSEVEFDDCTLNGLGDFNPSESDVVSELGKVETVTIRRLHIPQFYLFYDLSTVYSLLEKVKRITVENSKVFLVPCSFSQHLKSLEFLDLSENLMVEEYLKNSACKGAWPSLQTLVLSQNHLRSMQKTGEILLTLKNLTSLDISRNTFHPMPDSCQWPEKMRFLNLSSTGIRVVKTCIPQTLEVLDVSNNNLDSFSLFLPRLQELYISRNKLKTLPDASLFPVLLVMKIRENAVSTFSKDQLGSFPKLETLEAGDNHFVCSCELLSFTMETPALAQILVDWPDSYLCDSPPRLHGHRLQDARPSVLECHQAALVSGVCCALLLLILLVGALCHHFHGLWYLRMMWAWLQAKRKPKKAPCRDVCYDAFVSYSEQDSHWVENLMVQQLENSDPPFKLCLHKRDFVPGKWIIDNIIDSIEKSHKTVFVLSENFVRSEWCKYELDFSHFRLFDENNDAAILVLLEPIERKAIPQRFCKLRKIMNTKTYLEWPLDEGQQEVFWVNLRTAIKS", "assay": "TLR2 response in murine cells", "type": "cell-based"}}, "note": "“Also recorded” adds a separate entry of the source."}
{"sequence": "KYSFKLILAEYRRRRRRRRR [Peptide A464]", "values": [{"measurement": "inhibition of TLR3-mediated ISRE induction", "setting": "TLR3", "value": "slightly enhanced; also recorded: insensitive to inhibition"}, {"measurement": "inhibition of TLR3-mediated NFκB activation", "setting": "TLR3", "value": "insensitive to inhibition; also recorded: slightly enhanced"}, {"measurement": "effect on TLR2 in murine cells", "setting": "TLR2", "value": "unaffected"}]}
